Source: the nanobody polyreactivity screen of Harvey et al. (2022)

Assay: yeast display, Sf9 membrane polyspecificity reagent, FACS + sequencing; frameworks hold sequencing errors
Summary of the method: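 Galactose-induced (36–48 hours) yeast carrying a synthetic nanobody display library were exposed to 10% biotinylated, detergent-solubilized Sf9 membrane reagent at 4 °C for 1 hour. FACS followed streptavidin microbead enrichment, using low and high (top ~1%) gates for expression (anti-HA) and reagent binding (streptavidin). Colony PCR, MiSeq 2 × 250 sequencing and CDR-length filtering followed. Labels for polyreactivity reflect the gate of origin.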

| Sequence | polyreactivity (PSR sort gate) |
| --- | --- |
| QVQLVESGGGLVQAGGSLRLSCAASGRIFFSNAMGWYRQAQGKEREMVASITGGDDTNYADSVKGRFTISRDNAKNTVYLQMNSLKPEDTAVYYCAARAIPSYRWFYRFAPKYDYWGQGTQVTVSS | low polyreactivity |
| QVQLVESGGGLVQAGGSLRLSCAASGSTFSLYDMGWYRQAPGKERELVAAIRWSGDSTYYADSVKGRFTISRDNAKNTVYLQMNSLKPEDTAVYYCAKDQSSPWDIQFLVYGGYEYWGQGTQVTVSS | low polyreactivity |
| QVQLQESGGGLVQAGGSLRLSCAESGYISHAVEMGWYRQAPGKVHELVASISNGGSTNYADSVKGRFTISRDNAKNTVYLQMNSLKSEDTAVYYCAAWTGQVDIHSYWGQGTQVSVSS | low polyreactivity |
| QVQLVESAGRLVQAGGSLRLSCAASGSTYSSNAMGGYRQEPGKERELVAAITTSGGSTYYADSVKGRFTISRDNAKNTVYLQMNSLIPADTAVYYCAADLVHAYQWSIFLYGYWGLGTQVTVSS | low polyreactivity |
| QVQLVESGGGLVQAGGSLRLSCAASGYTFGGYAMGWYRQAPGKERELVAAISGSGVRTYYADSVKGRFTISRDNAKNTVYLQMNSLKPEDTAVYYCAKRVRYPGDRYYYWGQGTQVTVSS | high polyreactivity |
| QVQLVESGGGLVQAGGSLRLSCAASGRIFSYNAMGWYRQEPGKERELVASITSGGGRTYYADSVKGRFTISRDYAKNTVYLQMNSLKPVDTAVYYCAADGEVKYDYWGQGTQVTVSS | low polyreactivity |
| QVQLVESGGGLVQAGGSLRLSCAASGRIFGNYAMGWYRQAPGKERELVAAISGGGSTYYADSVKGRFTISRDNAKNTVYLQMNSLKPEDTAVYYCAARFLWSVFGRKGGFWGQGTQVTVSS | low polyreactivity |
| QVQLVESGGGLVQAGGSHRLSCAASGFTFTYYAMGWYRQAPGKERELVADITSGGGTNYADSVKGRFTISRDNAKNTVFLQMNSLKPEDTAVYYCAADAYHQGMDYWGQGTQVTVSS | low polyreactivity |
| QVQLVESGGGLVQAGGSLRLSCAASGITFASNPMGWYRQAPGKERELVAAITRGDNTYYADSVKGRFTISRDNAKNTVYLQMNSLKPEDTAVYYCATEGYQIQYEHDYWGQGTQVTVSS | low polyreactivity |
| QGQLVESGGGLVQAGGNLRLSCAASGSIFSDYTMGWYRQAPGKERELVAVITLSAGSTYYADSVKGRFTISRDNAKNTVYLQMNSLKPEDTAVYYCAADGWYYFGSGVFEYDYWGHGTQVTVSS | low polyreactivity |
| QVHLVESGGGLVQAGGSLRLSCAASGFTFSSNAMGWYRQAPGKERELVAAIRSGGTTKYADSVKGRFTISRDNAKNTLYLQMNSLKPEDTAVYYCAARIRDLAGYYYWGQGTQVTVSS | high polyreactivity |
| QVQLVESGGGLVQAGGSLRLSCAASGSIFNRYSMGWYRQEPGKERELVASIRGTGSTYYADSVKGRFTISRDNAKNTVYLQMNSLKPEDTAVDYCAARPGYLYSKYNYWGQGTQVTVSS | high polyreactivity |
| QVQLVESGGGLVQAGGSLRLSCAASGRTSRSYAMGWYRQAPGKERELVAAISWSGGSTYYADSVKGRFTMSRDNAKNTVYLQMNSLKPEDTAGYYCNALTLAGYDYWGQGTQVTVSS | high polyreactivity |
| QVQLVESGGGLVQAVGSLRLSCAASGFTIIDNAMGWYRQARGKERELVAAISISGGRTYYADSVKGRFTISRDNAKNTVYLQMNSLKPEDTAVYYCAAGKHRRDDYCGQGTQVTVSS | high polyreactivity |
| QVQLVESGGGLVQAGGSLRLRCAASGNIFYGNAMGWYRQAPGKERELVAGITSGGSTNYADSVKGRFTISRDNAKNTVYLQMNSLKPEDTAVYYCNATSSGSIFGYDYWGQGTQVTVSS | low polyreactivity |
| QVQLVESGGGLVQAGGSLRLSCAASGLTFVSYAMGWYRQAPGKERELVAAISYGGGSTNYADSVKGRFTISRDNAKNTVDLQMNSLKPEDTAVYYCAAEPGYYDEYGYWGQGTQVTVSS | low polyreactivity |
| QVQLVESGGGLVHAGGSLRLSCASSGSTFRPYAMGCYRQAPGKERELVAAIRKIGGRTYYADSVKGRFTISRDNANNTVYLQMNSLKPEDTAVYNCNKRIGGGVHAYNYWGQGTQVSVSS | low polyreactivity |
| QVQLVESGGGLVQAGGSLRLSCAASGSTFTPYAMGWYRQAPGKDREFVAVITRSGTRTYYADSVKGRFTISRDNAKNTVYLQMNSLKPEDTAVSYCAADRHPYNRYDYYYWGQGTQVTVSS | high polyreactivity |
| QVQLVESGGGLVQAGGSLRLSCAASGFTFPANAMGWYRQAPGKERELVATITWSGGNTYYADSVKGRFTISRDNAKNTVYLQMNSLKPEDTAVYYCAKDYDPYHEQQSSEHDDYWGQGTQVTVSS | low polyreactivity |
| QVQLVESGGGLVQAGGSLRLSCAASGRISRSNTMGWYRQAPGKERELVAAISRGGGSTYYADSVKGRFTISRDNAKNTVYLQMKSLKPEDTAVYYCAKRSAITGYEYWGQGTQVTVSS | high polyreactivity |
| QVQLVESGGGLVQAGGSLRLSCAASGGIFRKYAMGWDRQAPGKERDLVAAITSGGGTYYADSVKGRFTISRDNAKNTVLLQMNSQKPEDTAVYYCAARTLYVARRRPYYYWGQGTLVTVSS | high polyreactivity |
| QVQLVESGGGLVQAGGSLRLSCAASGRTFGVYAMGWYRQAPGKERELVAGIRWRGGSTYYADSVKGRFTISRDNAKNTVYLQMNSLKPEDTAVYYWAARVQFPYPDYAWITVLYDYWGQCTQVTVSS | low polyreactivity |
